Reference: patent US20120184713

Assays:
[1] = test system: T1, Peptide4, OPN-ASARM derivative with the other two Ser residues changed to Ala
T1 sequence: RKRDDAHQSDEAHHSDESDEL

[2] = test system: T2, Peptide1, OPN-ASARM peptide (human Osteopontin 115Asp to 132Leu with N-terminal Arg-Lys-Arg)
T2 sequence: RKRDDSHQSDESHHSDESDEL

[3] = test system: T3, Peptide3, OPN-ASARM derivative with the three G-CK consensus Ser residues changed to Ala
T3 sequence: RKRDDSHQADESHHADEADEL

Substance: Casein Kinase I (NEB)
- in vitro kinase assay with peptide substrate [1]: had reduced, but similar levels of activity on both OPN-ASARM^3S-A and OPN-ASARM^2S-A
- in vitro kinase assay with peptide substrate [2]: CKI also phosphorylated OPN-ASARM
- in vitro kinase assay with peptide substrate [3]: had reduced, but similar levels of activity on both OPN-ASARM^3S-A and OPN-ASARM^2S-A
